From patent US20240181094A1, “[161Tb]-BASED RADIOPEPTIDES” (priority 2021, published 2024) come the findings set out here.

Data set [1] concerns AR42J tumor-bearing mice. Nature of the data set: Biodistribution studies: comparison of 161Tb- and 177Lu-labeled peptides. The note with it: 1 nmol/mouse, 2 h p.i.
Data set [2] is described as follows: in vivo. The note with it: female, mouse, iv, 1 nmol/mouse, total radioactivity.
In data set [3] the test system is AR42J tumor-bearing mice. Conditions: female, CD-1 Foxn-1/nu athymic nude, mouse, in vivo, iv, 1 nmol/mouse, 24 h.

Starred links: 1 amine or outer side, 2 acyl side, 3 side chain; linkers in the order of their positions; H or OH if unused. Positions of bridges follow the written chain, without caps; N, C: chain ends. Non-standard residues stand in square brackets, D forms with d. Residues, ends and D or L forms follow the SMILES beside them. *: point of attachment. DOTA = O=C(O)CN1CCN(CC(=O)O)CCN(CC(=O)*)CCN(CC(=O)O)CC1; X1 = NC(=O)Nc1ccc(CC(N[*:1])C(=O)[*:2])cc1; Phe(4-Cl) = N[CH](Cc1ccc(Cl)cc1)C(=O)O

In data set [1], `CC(O)C1NC(=O)C(CCCCN)NC(=O)C(Cc2ccc(NC(N)=O)cc2)NC(=O)C(Cc2ccc(O)cc2)NC(=O)C(NC(=O)C(Cc2ccc(Cl)cc2)NC(=O)CN2CCN(CC(=O)O)CCN(CC(=O)O)CCN(CC(=O)O)CC2)CSSCC(C(=O)NC(Cc2ccc(O)cc2)C(N)=O)NC1=O` (stereo not shown) [metal not drawn] ({DOTA}-[Phe(4-Cl)]CY[X1]KTCY-NH2; disulfide 2-7; configuration not given here) gave a Femur uptake of 0.20 ± 0.05 % IA/g and a Lung uptake of 1.0 ± 0.2 % IA/g. In data set [2] (CD-1 Foxn-1/nu athymic nude), the tissue uptake at 2 h was not above 0.1 %ID/g and the tissue uptake at 24 h is not above 0.1 %ID/g. Besides, in data set [2] (athymic nude CD-1 Foxn-1/nu), the tissue uptake at 2 h is not above 0.1 %ID/g and the tissue uptake at 24 h was not above 0.1 %ID/g. Also, in data set [3], the Muscle uptake was not above 0.10 % IA/g.
